Values quoted from earlier work as cited in PMC11302571.

Target: BT-R3 (Anopheles gambiae)

Cry4B toxin (from UniProt P05519)
Kd: 0.036 µM
